The results in this text go back to patent publication US7790384B2, “HIP1 cancer markers” (The Regents of the University of Michigan, priority 2001, dated 2010).

For this experiment, the system named is cellular survival. Put plainly: Effect of expression of HIP1 dominant negative mutant on cellular survival. Type of experiment: cell-based. The following applies: for induction of cell death: expression of construct. The source says:
The effect of expression of a HIP1 dominant negative mutant on cellular survival was next investigated. […] 39% of HIP1/DE-expressing cells and 50% of caspase 9-expressing cells were apoptotic. […] Expression of the endogenous HIP1, wild type HIP1, HIP1/DE and Caspase 9 was documented by Western blot analysis as shown in the bottom of FIG. 6b.

B1: FLHIP1: wild type full length HIP1 expressed in cells (protein)
chain: MDRMASSMKQVPNPLPKVLSRRGVGAGLEAAERESFERTQTVSINKAINTQEVAVKEKHARTCILGTHHEKGAQTFWSVVNRLPLSSNAVLCWKFCHVFHKLLRDGHPNVLKDSLRYRNELSDMSRMWGYLSEGYGQLCSIYLKLLRTKMEYHTKNPRFPGNLQMSDRQLDEAGESDVNNFSQLTVEMFDYLECELNLFQTVFNSLDMSRSVSVTAAGQCRLAPLIQVILDCSHLYDYTVKLLFKLHSCLPADTLQGHRDRFMEQFTKLKDLFYRSSNLQYFKRLIQIPQLPENPPNFLRASALSEHISPVVVIPAEASSPDSEPVLEKDDLMDMDASQQNLFDNKFDDIFGSSFSSDPFNFNSQNGVNKDEKDHLIERLYREISGLKAQLENMKTESQRVVLQLKGHVSELEADLAEQQHLRQQAADDCEFLRAELDELRRQREDTEKAQRSLSEIERKAQANEQRYSKLKEKYSELVQNHADLLRKNAEVTKQVSMARQAQVDLEREKKELEDSLERISDQGQRKTQEQLEVLESLKQELATSQRELQVLQGSLETSAQSEANWAAEFAELEKERDSLVSGAAHREEELSALRKELQDTQLKLASTEESMCQLAKDQRKMLLVGSRKAAEQVIQDALNQLEEPPLISCAGSADHLLSTVTSISSCIEQLEKSWSQYLACPEDISGLLHSITLLAHLTSDAIAHGATTCLRAPPEPADSLTEACKQYGRETLAYLASLEEEGSLENADSTAMRNCLSKIKAIGEELLPRGLDIKQEELGDLVDKEMAATSAAIETATARIEEMLSKSRAGDTGVKLEVNERILGCCTSLMQAIQVLIVASKDLQREIVESGRGTASPKEFYAKNSRWTEGLISASKAVGWGATVMVDAADLVVQGRGKFEELMVCSHEIAASTAQLVAASKVKADKDSPNLAQLQQASRGVNQATAGVVASTISGKSQIEETDNMDFSSMTLTQIKRQEMDSQVRVLELENELQKERQKLGELRKKHYELAGVAEGWEEGTEASPPTLQEVVTEKESQTNTPYVSVNPCYLSRVCYFPSHRPNPWSPRGSHTTAITQCRGHAHFQRLPPRHPFCLDPWISTASYGGWLGFLVLFFFFKFHSHSQLSQRAHPWGVSRAPQLWLQRWCCPGLSVLHLRLHTDQVLAHPVHAPGSGGAAEQLSSKSRRRVSAFPSSIPAESLCPPLQGRRQQKEGQEGSHSPVPVTRLKNLITCLNGAGEINNTTSLPETVREWSLSSGPSPLAQRRSVGVIPNSFLQTSALASSIGRSFHLLRNQTRKIRCNCSHQGRTLYLVCYPYLLLTSLKQQQPTKRCLEQSELQVLQSSSFCPATSAFKNQKKGQGAGLLLTWIPKQGDHLELLGQRKERTEPAAPTPFSHMPQALAALWTGGQRAHEQLARDGQPNSTFPLLDGPQHLSDLLILGKQRLPSLSIATHWWPSSTSEFLQPGRPLEHAXEGP
modifications: X: residue not identified in the source
notes: wild type full length HIP1 expressed in cells
As to B1, the “correction of HIP1 deltaE apoptosis” value (co-expression with HIP1 deltaE, FIG. 12 and 13) was “correction of HIP1 deltaE apoptosis”. Further, the “induction of cell death” value (FIG. 6b) is “did not induce cell death”.

B2: HIP1/deltaE: dominant negative mutant of HIP1 lacking the ENTH domain (SEQ ID NO: 4) (protein, listed as Homo sapiens)
chain: MFDYLECELNLFQTVFNSLDMSRSVSVTAAGQCRLAPLIQVILDCSHLYDYTVKLLFKLHSCLPADTLQGHRDRFMEQFTKLKDLFYRSSNLQYFKRLIQIPQLPENPPNFLRASALSEHISPVVVIPAEASSPDSEPVLEKDDLMDMDASQQNLFDNKFDDIFGSSFSSDPFNFNSQNGVNKDEKDHLIERLYREISGLKAQLENMKTESQRVVLQLKGHVSELEADLAEQQHLRQQAADDCEFLRAELDELRRQREDTEKAQRSLSEIERKAQANEQRYSKLKEKYSELVQNHADLLRKNAEVTKQVSMARQAQVDLEREKKELEDSLERISDQGQRKTQEQLEVLESLKQELATSQRELQVLQGSLETSAQSEANWAAEFAELEKERDSLVSGAAHREEELSALRKELQDTQLKLASTEESMCQLAKDQRKMLLVGSRKAAEQVIQDALNQLEEPPLISCAGSADHLLSTVTSISSCIEQLEKSWSQYLACPEDISGLLHSITLLAHLTSDAIAHGATTCLRAPPEPADSLTEACKQYGRETLAYLASLEEEGSLENADSTAMRNCLSKIKAIGEELLPRGLDIKQEELGDLVDKEMAATSAAIETATARIEEMLSKSRAGDTGVKLEVNERILGCCTSLMQAIQVLIVASKDLQREIVESGRGTASPKEFYAKNSRWTEGLISASKAVGWGATVMVDAADLVVQGRGKFEELMVCSHEIAASTAQLVAASKVKADKDSPNLAQLQQASRGVNQATAGVVASTISGKSQIEETDNMDFSSMTLTQIKRQEMDSQVRVLELENELQKERQKLGELRKKHYELAGVAEGWEEGTEASPPTLQEVVTEKESQTNTPYVSVNPCYLSRVCYFPSHRPNPWSPRGSHTTAITQCRGHAHFQRLPPRHPFCLDPWISTASYGGWLGFLVLFFFFKFHSHSQLSQRAHPWGVSRAPQLWLQRWCCPGLSVLHLRLHTDQVLAHPVHAPGSGGAAEQLSSKSRRRVSAFPSSIPAESLCPPLQGRRQQKEGQEGSHSPVPVTRLKNLITCLNGAGEINNTTSLPETVREWSLSSGPSPLAQRRSVGVIPNSFLQTSALASSIGRSFHLLRNQTRKIRCNCSHQGRTLYLVCYPYLLLTSLKQQQPTKRCLEQSELQVLQSSSFCPATSAFKNQKKGQGAGLLLTWIPKQGDHLELLGQRKERTEPAAPTPFSHMPQALAALWTGGQRAHEQLARDGQPNSTFPLLDGPQHLSDLLILGKQRLPSLSIATHWWPSSTSEFLQPGRPLEH
In the case of B2, the apoptotic cells (cells expressing the construct, FIG. 6b) is 39%. Moreover, the “induction of cell death” value (FIG. 6b) is given as “promoted cell death”.
